The values below come from PMC6366758.

The term Kd denotes the equilibrium constant for the complex coming apart. Lower therefore signals a tighter complex. Broadly, the koff is the first-order rate constant of dissociation. High values mean a short-lived complex, low ones a long-lived complex. Broadly, the stoichiometry N is a count of units in the complex or per binding partner.

The target in experiment [1] is RSV F glycoprotein nanoparticles (human respiratory syncytial virus A2 (RSV/A2)).
The target in experiment [2] is Post-fusion F (human respiratory syncytial virus A2 (RSV/A2)). Briefly: SPR. (In general: In SPR one partner is held on a chip, and binding of the other changes the refractive index at the surface.)
Experiment [3] concerns the target RSV F710 post-fusion (human respiratory syncytial virus A2 (RSV/A2) | bacteriophage T4). Briefly: cryo-EM structure; single particle cryo-EM of the purified RSV F710-R4.C6 Fab complex on graphene oxide grids; C3 symmetry; overall 3.9 A.

In experiment [1], Motavizumab (antibody) registered an RSV/A Long neutralization (IC50), micro-neutralization assay on HEp-2 cells of 0.0208 µg/mL. In experiment [2], Palivizumab showed a Kd of 0.34 nM and a koff of 5.79e-05 s⁻¹.

On to RSV F710 post-fusion, for which the stoichiometry N in experiment [3] was 3.
